Experimental data published in patent US10509035B2, “Antibodies, antibody drug conjugates and methods of use” (GAMAMABS PHARMA, priority 2015, dated 2019).
“Also recorded” adds a separate entry of the source.

B1: K4D24: 3C23K variant; VH H-Q1R (SEQ ID NO: 22), VL SEQ ID NO: 36 (antibody, V domains shown)
VH: RVRLVQSGAEVKKPGASVKVSCKASGYTFTSYHIHWVRQAPGQRLEWMGWIYPGDDSTKYSQKFQGRVTITRDTSASTAYMELSSLRSEDTAVYYCTRGDRFAYWGQGTLVTVSS
VL: DIQMTQSPSTLSASVGDRVTITCRASSSVRYIAWYQQKPGKAPKLLTYPTSSLKSGVPSRFSGSGSGTEFTLTISSLQPDDFATYYCLQWSSYPWTFGGGTKVEIK
modifications: K4D-24/6C59; 3C23K
B2: 6C59: 3C23K variant; VH H-Q1R (SEQ ID NO: 22), VL L-S27P, L-S28P (SEQ ID NO: 40) (antibody, V domains shown)
VH: RVRLVQSGAEVKKPGASVKVSCKASGYTFTSYHIHWVRQAPGQRLEWMGWIYPGDDSTKYSQKFQGRVTITRDTSASTAYMELSSLRSEDTAVYYCTRGDRFAYWGQGTLVTVSS
VL: DIQMTQSPSTLSASVGDRVTITCRASPPVRYIAWYQQKPGKAPKLLTYPTSSLKSGVPSRFSGSGSGTEFTLTISSLQPDDFATYYCLQWSSYPWTFGGGTKVEIK
modifications: K4D-24/6C59; LS27P, L-S28P

What was measured:
[1] = biological target: T1, AMHR2 receptor expressed at the surface membrane of the COV434 WT cell line (Homo sapiens, UniProt Q16671); experiment: FACS binding to the low expressing COV434 WT cell line; settings: variants 25, 10, 5 μg/ml; 3C23K 50, 25, 10 μg/ml
T1 construct: assayed on the low expressing AMHR-II COV434 WT cell line; endogenous in cells; host or cells: COV434 WT
T1 sequence (Q16671 18-573): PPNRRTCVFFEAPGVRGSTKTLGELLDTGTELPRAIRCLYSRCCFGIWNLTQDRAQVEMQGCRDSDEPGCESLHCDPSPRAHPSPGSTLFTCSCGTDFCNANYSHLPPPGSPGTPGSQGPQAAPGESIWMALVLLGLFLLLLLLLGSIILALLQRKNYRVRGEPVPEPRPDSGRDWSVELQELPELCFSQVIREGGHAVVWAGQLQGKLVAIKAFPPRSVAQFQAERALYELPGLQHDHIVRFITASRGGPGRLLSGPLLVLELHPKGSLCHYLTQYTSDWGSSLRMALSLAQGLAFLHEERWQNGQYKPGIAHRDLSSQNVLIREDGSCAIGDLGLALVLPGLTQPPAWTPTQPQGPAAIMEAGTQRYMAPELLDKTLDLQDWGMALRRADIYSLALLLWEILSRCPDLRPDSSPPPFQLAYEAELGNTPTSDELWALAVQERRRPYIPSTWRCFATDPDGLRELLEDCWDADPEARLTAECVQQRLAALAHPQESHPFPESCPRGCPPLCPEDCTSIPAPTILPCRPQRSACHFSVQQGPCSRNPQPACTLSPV
Procedure: The COV434 AMHR-II transfected and the COV434 WT cell lines were maintained in DMEM/GlutaMax (Gibco) supplemented with 10% FBS, penicillin 100 U/ml and Streptomycin 100 μg/ml. Geneticin at 666 μg/ml was added for the COV434 AMHR-II transfected cell line. […] After washes, Phycoerythrin-conjugated anti-human IgG antibody (1:200, Beckman-Coulter) was added for 1 hour at room temperature. FACS analysis of the resuspended cells was done on a BD Accuri™ C6 flow cytometer (BD Bioscience).
The binding capacity of the anti-AMHR-II antibody variants K4D24 and 6C59 to the AMHR-II expressing cell lines was evaluated by flow cytometry analysis in the same manner as example 4. FACS analysis with COV434-AMHR-II transfected cell line is described in FIG. 16. The Kapparent of the K4D24 and 6C59 variants were improved by a factor of 20 and 40 fold respectively as compared to the 3C23K (0.098 μg/ml and 0.05 μg/ml versus 2.2 μg/ml). The binding capacity of these variants was also assayed on the low expressing AMHR-II COV434 WT cell line. In this setting the binding was evaluated with three concentrations of variants (25, 10 and 5 μg/ml) and three concentrations of 3C23K (50, 25 and 10 μg/ml).

[2] = tested on: COV434 AMHR-II transfected cell line; experiment: Antibody internalization (flow cytometry and immunofluorescence imaging); format: cell-based; settings: flow cytometry; K4D24 0.5 μg/ml, 6C59 0.3 μg/ml, 3C23K 10 μg/ml
Procedure: Antibody mediated internalization were assessed by flow cytometry analysis and by immunofluorescence imaging. Flow cytometry experiments was done on the two expressing AMHR-II cell lines: COV434 WT with low level of expression and COV434-AMHR-II transfected cell line with high level of expression. Briefly, 5×10^5 cells were incubated with 3C23K at 10 μg/ml and incubated 30 min at 4° C. After washes, DMEM/GlutaMax (Gibco) medium, cold or pre-warmed at 37° C., was added and incubated at 4° C. or 37° C. at different time points (15 min, 30 min and 60 min). Phycoerythrin-conjugated anti-human IgG antibody (1:200, Beckman-Coulter) was added for 30 min at 4° C. FACS analysis of the resuspended cells was done on a BD Accuri™ C6 flow cytometer (BD Bioscience). As depicted in FIGS. 9A and 9B, the internalization of the 3C23K observed at 37° C. is fast whatever the level of AMHR-II expression. For immunofluorescence imaging experiments, COV434 AMHR-II transfected cell line were grown on poly-D lysine coated glass coverslips overnight at 37° C. at a density of 75000 cells/cm^2. Cells were incubated with 3C23K directly labelled with Alexa Fluor 488 for 1H30 at 4° C. to carry out surface labelling. Cell surface bound antibodies were allowed to internalize by incubating cells in prewarmed medium at 37° C. At appropriate time points, coverslips were removed and cells were washed in PBS, then fixed in formaline (4%, 30 min at room temperature) and permeabilized (Triton X-100 0.5%, 5 min at room temperature). Nuclei were stained with DAPI (4′,6-diamidino-2-phenylindole) and coverslips were mounted on microscope slides and imaged with Leica DM5000 microscope (Leica Microsystems). Internalization was quantified by counting the number of visible vesicles in cell section at different incubation time using Image J software.
The internalization capacity of the K4D24 and 6C59 variants was assayed by fluorescence cytometry analysis in the same manner as in Example 8 except for the concentrations used. Due to their strong binding, K4D24 and 6C59 were used at 0.5 μg/ml and 0.3 μg/ml respectively whereas the 3C23K was used at 10 μg/ml.

[3] = biological target: T2, extracellular domain of AMHR-II receptor (AMHR-II-ECD-Fc) (Homo sapiens, UniProt Q16671); experiment: ELISA binding to the extracellular domain of AMHR-II receptor
T2 construct: Fc (C); purchased R&D System
T2 sequence (Q16671 18-149 limits assumed): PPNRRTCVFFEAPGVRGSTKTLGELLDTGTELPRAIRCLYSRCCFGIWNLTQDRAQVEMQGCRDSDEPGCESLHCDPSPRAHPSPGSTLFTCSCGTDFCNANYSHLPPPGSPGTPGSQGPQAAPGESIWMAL
Procedure: The binding capacity of the anti-AMHR-II 3C23K antibodies was evaluated by ELISA. ELISA plates (96 wells, Maxisorp, NUnc) were coated overnight at +4° C. with 50 ng per well of AMHR-II-ECD-Fc (R&D System). Coated ELISA plates were blocked with PBS-BSA 4% for 2 hours at 37° C. and washed three times with PBS-Tween20 0.05%. […] The bound anti-AMHR-II antibodies were detected by adding HRP-conjugated F(ab′)2 goat anti-human F(ab′2) fragment specific (Interchim) diluted at 1:10000 and incubated for one hour at 37° C. Revelation was done with TMB (Sigma) and the reaction was stopped by adding H2SO4 1N (v:v). Absorbances were measured at 450 nm and binding data curves were analysis using GraphPad Prism.
The binding capacity of the anti-AMHR-II variants K4D24 and 6C59 antibodies was assayed by ELISA assay as the same manner as in example 3 with only minor changes. ELISA plates (96 wells, Maxisorp, NUnc) were coated overnight at +4° C. with 50 ng per well or 10 ng per well of AMHR-II-ECD-Fc (R&D System). K4D24, 6C59 and 3C23K were serially diluted from 4 μg/ml to 1 ng/ml. Absorbances were measured at 450 nm and binding data curves were analysis using four-parameter nonlinear regression fit from GraphPad Prism. FIGS. 15A-15B show the results.

[4] = coating 10 ng/well AMHR-II recombinant protein
[5] = coating 50 ng/well AMHR-II recombinant protein

Molecule	binding compared to 3C23K on the COV434 WT cell line [1]	internalization compared with 3C23K [2]	binding compared with 3C23K [3, 4]	binding compared with 3C23K [3, 5]
B1	strongly improve the level of detection; also recorded: stronger binding	retain the same internalization potential	Improved binding; also recorded: stronger	no major difference of binding
B2	strongly improve the level of detection; also recorded: stronger binding	retain the same internalization potential	Improved binding; also recorded: stronger	no major difference of binding
